2 molecules from US20180057557A1 (University of Pennsylvania, published 2018) can be followed below.

For this assay, the target named is T1, recombinant folate receptor alpha protein (immobilized) (UniProt P15328 25-233, limits assumed).
T1 construct: also called FRa
As to the kind of experiment: binding of GFP+ IR T cells to immobilized recombinant protein (FIG. 3A).

T1 sequence (P15328 25-233 limits assumed): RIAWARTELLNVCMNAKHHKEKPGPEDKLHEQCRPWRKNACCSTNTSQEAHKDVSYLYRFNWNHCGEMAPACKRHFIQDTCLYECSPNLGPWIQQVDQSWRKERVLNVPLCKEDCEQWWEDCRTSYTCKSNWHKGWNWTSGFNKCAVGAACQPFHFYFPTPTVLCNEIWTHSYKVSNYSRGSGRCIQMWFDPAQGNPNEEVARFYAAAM

B1: Anti-FSHRb51-65FSH-28z immunoreceptor (on primary human T cells) (other, not shown: large carriers)
chain: not shown
notes: Chimeric immunoreceptor on transduced primary human T cells; also called anti-FSHR (51-65)-28z IR; Anti-FSHR(51-65)-28z
B1: the binding result is reported as “no binding”.

B2: Anti-FSHRb33-53FSH-28z immunoreceptor (on primary human T cells) (other)
chain: not shown
notes: also called anti-FSHR (33-53)-28z IR; Anti-FSHR(33-53)-28z
Regarding B2, the binding result was “no binding”.
